The target of this series is hnRNP A1 (Homo sapiens, UniProt P09651 P09651:1-372). In words: EMSA; 100-400 ng protein; same as mutant at low protein, less efficient at 400 ng; 80 mM KCl, pH 7.9, E. coli tRNA, 20 C. The conditions noted are these: tags: N-terminal GST (GST-pcDNA3), expressed in HEK293T; label: 32P. As for the experimental part: Human hnRNP A1 cDNA was amplified by PCR. The obtained amplified fragment was inserted to between the BamHI and NotI sites of GST-pcDNA3 to prepare a GST-hnRNP A1 plasmid. The whole sequence of this plasmid was determined to confirm the plasmid to comprise the fragment of interest. HEK293T cells were transfected with this GST-hnRNP A1 plasmid, and the obtained transformed cells were cultured. A whole cell lysate was prepared from the collected transformed cells according to the method described in the document (Methods Mol Biol (2008) 488, 357-365). The GST-hnRNP A1 protein was purified from the whole cell lysate using an anti-GST affinity resin (manufactured by Sigma-Aldrich Corp.), basically as described in the document (The Journal of Biological Chemistry (2002) 277, 7540-7545) except that the resin was washed twice with buffer solution E (20 mM Hepes-KOH (pH 7.9), 1000 mM KCl, 0.2 mM EDTA, 10% glycerol, and 1 mM DTT) before elution from the column. Subsequently, mutant exon 31 RNA or wild-type exon 31 RNA labeled with ³²P was mixed with the GST-hnRNP A1 protein and incubated at 20° C. for 30 minutes. The obtained complex was subjected to gel mobility shift assay. […]
Chain of hnRNP A1 (P09651 whole entry, the tested form may be a part, one chain of several): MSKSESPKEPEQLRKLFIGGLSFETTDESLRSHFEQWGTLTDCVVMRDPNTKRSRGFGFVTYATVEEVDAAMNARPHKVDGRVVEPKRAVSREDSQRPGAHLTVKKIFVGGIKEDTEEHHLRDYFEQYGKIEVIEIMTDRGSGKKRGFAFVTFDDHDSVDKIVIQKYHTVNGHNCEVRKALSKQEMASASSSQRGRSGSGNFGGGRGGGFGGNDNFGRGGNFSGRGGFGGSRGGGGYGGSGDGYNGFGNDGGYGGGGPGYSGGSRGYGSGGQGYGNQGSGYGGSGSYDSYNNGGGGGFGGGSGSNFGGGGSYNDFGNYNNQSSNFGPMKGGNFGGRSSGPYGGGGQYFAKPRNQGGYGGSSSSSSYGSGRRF
The gel mobility shift assay was basically conducted according to the method described in the document (Nucleic Acids Research (1995) 23, 3638-3641). […] Bands were analyzed by autoradiography. […]

B1: dystrophin exon 31 RNA wild-type (ssRNA)
RNA: AAAAUCCAAUCUGAUUUGACAAGUCAUGAGAUCAGUUUAGAAGAAAUGAAGAAACAUAAUCAGGGGAAGGAGGCUGCCCAAAGAGUCCUGUCUCAGAUUGAUGUUGCACAG
On to B1, for which the binding result was “binds”.
